Assay results published in the supplement of paper PMC10567573.

B1: SPRY1 (parent)
chain: WIHRPGCRCKNSNTVYCKLESCPS
B2: ZNF232 (parent)
chain: FPKSEQVYLHFLSVVTEDGPEPKD

Variants of: B1
Test: protein stability index of a GFP-peptide fusion (GPS, HEK-293T) (PSI 1-6); higher = more stable
Conditions: c terminus: a fixed tail appended
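Further: lentivirally expressed fusions sorted by FACS into six bins by GFP to DsRed ratio, PSI derived from sequencing read proportions per bin multiplied by bin number.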

Protein stability index, by site and new letter:
H3: A 2.75, P 2.79, Q 2.5, I 1.74, Y 1.59, S 3.16, N 2.4, G 2.76, E 3.78, R 2.44, C 1.48, L 2.31, F 1.87, M 2.52, V 1.72, D 3.37, W 1.73, T 2.71, K 2.13
W1: T 3.45, S 4.09, L 3.54, M 2.88, Y 2.13, H 3.72, F 2.04, D 4.38, P 3.5, E 3.75, Q 3.23, R 3.79, A 3.52, N 4.04, V 3.03, I 3, G 3.65, K 3.97, C 3.78
G6: V 1.93, E 3.01, K 2.32, P 2.61, H 2.06, F 1.7, A 2.15, I 3.08, M 2.16, W 2.69, L 1.97, Y 2.26, Q 2.16, T 3.09, N 2.37, D 2.62, S 2.48, C 2, R 2.12
R4: I 2.82, K 2.34, Y 3.18, C 2.77, E 3.48, D 3.73, P 3.03, V 3.11, M 2.85, S 3.07, A 2.51, T 2.67, W 1.97, F 2.72, Q 4.23, L 3.06, N 3.43, H 3.3, G 3.95
I2: Q 2.82, Y 2.23, M 2.4, E 3.89, P 3.62, K 3.39, G 2.73, V 2.76, C 3.23, H 2.77, R 2.46, N 3.22, F 1.61, D 3.9, A 2.68, T 3.13, S 3.27, W 2.12, L 2.34
C7: N 2.37, Q 1.94, H 2.55, V 1.15, D 2.28, W 3, Y 1.45, K 1.49, R 3.4, T 1.82, A 2.35, S 1.77, G 1.25, P 1.4, F 2.89, L 1.72, E 1.85, M 2.14, I 1.52
P5: E 3.08, H 1.91, A 2.02, G 1.85, M 2.15, Y 3.19, Q 2.38, S 2.27, C 2.02, I 2.11, T 2.37, L 2.77, K 2.21, D 3.42, V 2.65, R 3.01, W 1.82, N 2.39, F 1.79
R8: H 2.63, G 2.81, F 2.08, T 2.26, K 2.68, V 2.57, E 3.33, S 2.24, Q 3.29, M 2.83, C 2.25, N 3.28, L 2.6, Y 2.2, D 2.67, P 2.4, I 2.38, W 2.21, A 3

Variants of: B2
Test: as above
Conditions: c terminus: a fixed tail appended

Protein stability index of substitutions, site by site:
P22: C 1.34, W 1.83, Q 1.75, Y 1.25, L 2.63, I 2, G 1.75, F 1.67, E 1.94, N 2.37, K 1.67, H 2.39, R 1.9, D 3.31, S 1.81, T 2, A 1.85
V14: P 3.14, I 3.05, M 2.37, W 1.29, K 2.29, H 2.34, T 2.23, L 2.86, F 2.18, N 3.09, D 3.72, R 2.45, Y 3.58, S 1.97, C 1.92, E 3, Q 2.82, G 2.68
S13: R 1.98, T 1.78, Y 3.15
E21: V 2.97, I 2.33, Q 1.71, L 1.91, A 2.71, Y 1.68, S 2.26, W 1.7, H 2.02, M 2.04, R 1.79, C 1.91, K 2.07, F 3.2, T 2.06, D 2.02, P 1.91, N 2.12
D18: S 1.33, P 1.94, K 1.58, M 1.01, G 2.32, Q 1.77, R 1.47, F 3.47, L 2.61, N 1.71, V 1.23, H 2.46, A 1.73, T 1.76, Y 1.24
T16: S 2.31, E 2.38, N 2.42, D 2.26, H 2.68, Q 1.87, P 3.37, V 1.81, Y 2.07, W 1.89, F 1.63, L 1.85, I 2.19, K 2.77, A 2.31, C 2.47
G19: A 2.33, P 2.21, D 2.06, S 2.27, F 1.54, V 1.5, H 2.32, L 1.93, T 2.34, R 2.45, K 2.71, N 2.69, W 1.47, Y 1.33, Q 2.49, M 2.05, I 1.9, E 2.43, C 1.95
D24: A 1.8, S 1.71, F 1.99, E 2.12, P 2.16, G 3.76, L 2.94, Y 2.58, I 2.14, C 1.36, N 1.82, R 1.83, M 1.56, T 1.75, V 2.37, Q 2.95, W 1.35, H 1.35
E17: P 1.99, D 2.62, K 2, A 3.57, Y 2.15, F 2.38, N 1.66, T 2.08, L 1.56, I 1.77, W 4.03, S 1.65, Q 1.8, M 2.51, R 1.88
P20: A 3.42, V 1.76, F 1.44, L 1.71, C 1.93, I 2.25, K 2.47, R 2.15, M 2.11, H 2.28, D 2.53, G 2.5, T 2.72
K23: W 1.7, V 2.14, E 2.13, H 1.84, F 1.63, I 2.06, M 2.22, Y 1.39, D 1.82, N 1.69, G 1.83, A 2.66, C 2.07, S 1.91, T 1.69
V15: M 2.88, H 2.4, F 2.44, T 2.1, D 3.45, K 2.27, S 2.47, E 3.1, N 2.36, C 1.72, I 1.89, P 2.08, R 3.32, Y 2.43, W 1.47
